Results from PMC12187842, “A novel molecule targeting neutrophil-mediated B-1a cell trogocytosis attenuates sepsis-induced acute lung injury” (Frontiers in Immunology, 2025).

B1: recombinant mouse (rm)Siglec-G (receptor, UniProt Q80ZE3 18-543, looked up)
chain: QMESYFLQVQRIVKAQEGLCIFVPCSFSSPEGKWLNRSPLYGYWFKGIRKPSLSFPVATNNKDKVLEWEARGRFQLLGDISKKNCSLLIKDVQWGDSTNYFFRMERGFERFSFKEEFRLQVEALTQKPDIFIPEVLEPGEPVTVVCLFSWTFNQCPAPSFSWMGDAVSFQESRPHTSNYSVLSFIPGLQHHDTELTCQLDFSRMSTQRTVRLRVAYAPRSLAISIFHDNVSVPDLHENPSHLEVQQGQSLRLLCTADSQPPATLSWVLEDQVLSWSSPVGSRTLALELPWVKAGDSGHYTCQAENRLGSQQHTLDLSVLYPPQDLRVTVSQANRTVLEILRNAISLPVLEGQSLCLVCVTYSNPPANVSWAWVTQTLIPIQSSEPGVLELPLVQREHEGEFTCAAQNPLGAQRISLSLSVHYPPQMSSPSCSWEAKGLHCNCSSRAWPAPSLRWRLGEGLLEGNSSNASFTVTFSSLGPWVNSSLSLLQELGPSLWLSCESWNTHGAQTTSVLLLPDKDSATAFSK
notes: Siglec-G, mouse, recombinant; UniProt Q80ZE3 is printed for the in silico model; check the vendor's data sheet; source: bought: R&D Systems (Cat. No. 10103-SL-050)
B2: recombinant mouse CD47 (receptor, UniProt Q61735 19-140, looked up)
chain: QLLFSNVNSIEFTSCNETVVIPCIVRNVEAQSTEEMFVKWKLNKSYIFIYDGNKNSTTTDQNFTSAKISVSDLINGIASLKMDKRDAMVGNYTCEVTELSREGKTVIELKNRTVSWFSPNEK
notes: CD47, mouse, recombinant; UniProt Q61735 is printed for the in silico model; check the vendor's data sheet; also called rmCD47; source: bought: Abcam (Cat. No. AB231160)

Key:
rmCD47 = assay: Surface plasmon resonance: rmSiglec-G binding to immobilized rmCD47; parameters: species or system mouse; conditions: SPR (OpenSPR), rmCD47 immobilized on HS-carboxyl sensor, rmSiglec-G analyte 100, 250 and 500 nM, PBS 0.05% P20, pH 7.4, 20°C, 1:1 global fit; no C11; read-out: dissociation constant (KD) Siglec-G/CD47
Method: To examine the direct interaction between recombinant mouse (rm)Siglec-G (Cat. No. 10103-SL-050, R&D Systems, Minneapolis, MN) and rmCD47 (Cat. No. AB231160, Abcam, Cambridge, UK), surface plasmon resonance (SPR), using OpenSPR (Nicoya, Ontario, Canada), was performed. HS-Carboxyl sensor was used; rmCD47 was immobilized on the sensor surface; rmSiglec-G was in the reaction buffer, working as an analyte. Binding reactions were performed in PBS 0.05% P20, pH7.4. The carboxyl sensor was first cleaned by injecting 150 µL of 10 mM HCl, followed by injection of 150 µL of the mixture of 1 aliquot of N-ethyl-N′-[3-[…]]-carbodiimide (EDC) and 1 aliquot of N-hydroxysuccinimide (NHS) to activate the sensor surface. […] To evaluate the binding, the analyte ranging from 100 nM, 250 nM and 500 nM were injected into flow cell-1 and flow cell-2, and the real-time interaction data were analyzed by TraceDrawer (Nicoya). […] For peptide C11 efficacy on Siglec-G binding to CD47, with the same setting as Siglec-G binding with CD47 on HS-carboxyl sensor, peptide C11 at 1 µM preincubated with concentrations of rmSiglec-G 100 nM, 250 nM & 500 nM for 30 minutes and then injected into flow cell-1 and flow cell-2, and real-time interaction were analyzed ab TraceDrawer (Nicoya). […]

recombinant mouse CD47 = molecular target: B2; assay: SPR; same setting as a1 (rmCD47 immobilised on HS-carboxyl sensor); peptide C11 at 1 µM preincubated for 30 minutes with rmSiglec-G at 100, 250 and 500 nM, then injected; conditions: both partners purified
[1] = molecular target: B1; assay: SPR; OpenSPR (Nicoya), HS-Carboxyl sensor; rmCD47 immobilised by EDC/NHS coupling; rmSiglec-G as analyte at 100, 250 and 500 nM; PBS 0.05% P20, pH 7.4; 40 uL/min; 20°C; global fit for 1:1 binding; conditions: both partners purified

| Kd (rmCD47) [nM] | KD in the presence of 1 µM C11 (recombinant mouse CD47) [nM] | Kd [1] [nM] | Molecule |
| --- | --- | --- | --- |
| 10.8 | 155 | – | B1 |
| – | – | 10.8 | B2 |
